Test results reported in paper PMC4507774, “Arabidopsis seed-specific vacuolar aquaporins are involved in maintaining seed longevity under the control of ABSCISIC ACID INSENSITIVE 3”.

T1: ABI3-B3 (partial ABI3, B3 domain) (UniProt Q01593 559-720)
T1 sequence: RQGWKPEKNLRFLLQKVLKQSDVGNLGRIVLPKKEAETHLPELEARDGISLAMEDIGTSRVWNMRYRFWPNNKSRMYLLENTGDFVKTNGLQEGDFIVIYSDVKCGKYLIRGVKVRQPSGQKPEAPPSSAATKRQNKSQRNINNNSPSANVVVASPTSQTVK


Legend:
[1] = target: T1, ABI3-B3 (partial ABI3, B3 domain); assay: competition; 40- or 200-fold unlabelled competitor vs 31RY2-bio; EMSA: 1x LightShift binding buffer, 2.5% glycerol, 50 ng/ul poly(dI-dC), 50 mM KCl, 0.5 mM EDTA, 20 C, 30 min; pH not stated; details: protein: recombinant; tags: His (pET28a, Ni-NTA); blunt
[2] = target: T1, ABI3-B3 (partial ABI3, B3 domain); assay: EMSA; EMSA: 1x LightShift binding buffer, 2.5% glycerol, 50 ng/ul poly(dI-dC), 50 mM KCl, 0.5 mM EDTA, 20 C, 30 min; pH not stated; details: protein: recombinant; tags: His (pET28a, Ni-NTA); label: biotin; blunt
[3] = target: T1, ABI3-B3 (partial ABI3, B3 domain); assay: competition; 40- or 200-fold unlabelled competitor vs 32RY-bio; EMSA: 1x LightShift binding buffer, 2.5% glycerol, 50 ng/ul poly(dI-dC), 50 mM KCl, 0.5 mM EDTA, 20 C, 30 min; pH not stated; details: protein: recombinant; tags: His (pET28a, Ni-NTA); blunt

Binder | binding result [1] | binding result [2] | binding result [3]
31RY2-mu (dsDNA) DNA 1: ATCTACTTGGCACAGCGCTAGCCTTAGTCAACACA DNA 2: TGTGTTGACTAAGGCTAGCGCTGTGCCAAGTAGAT | no binding |  | 
31RY2-bio (TIP3;1 promoter RY2) (dsDNA) DNA 1: ATCTACTTGGCACACATGCATGCTTAGTCAACACA DNA 2: TGTGTTGACTAAGCATGCATGTGTGCCAAGTAGAT |  | binds | 
31RY2-cold (dsDNA) DNA 1: ATCTACTTGGCACACATGCATGCTTAGTCAACACA DNA 2: TGTGTTGACTAAGCATGCATGTGTGCCAAGTAGAT | binds |  | 
32RY-bio (TIP3;2 promoter RY) (dsDNA) DNA 1: CTTGATCCACTTGGCACACATGCATAGATATATAGTCACAGC DNA 2: GCTGTGACTATATATCTATGCATGTGTGCCAAGTGGATCAAG |  | binds | 
32RY-cold (dsDNA) DNA 1: CTTGATCCACTTGGCACACATGCATAGATATATAGTCACAGC DNA 2: GCTGTGACTATATATCTATGCATGTGTGCCAAGTGGATCAAG |  |  | binds
32RY-mu (dsDNA) DNA 1: CTTGATCCACTTGGCACAGCGTACTAGATATATAGTCACAGC DNA 2: GCTGTGACTATATATCTAGTACGCTGTGCCAAGTGGATCAAG |  |  | no binding
